Source: article PMC9519457 (Nature Microbiology, 2022)

Legend:
Assay in all cases: BLI
Conditions in all cases: both partners purified
[1] = target: T1, SARS-CoV-2 Alpha RBD (SARS-CoV-2 Alpha (B.1.1.7), N501Y (stands in the printed letters))
[2] = target: T1, SARS-CoV-2 Alpha RBD; remark: listed apart in the source
[3] = target: SARS-CoV-2 RBD (residues 319-541), wild type (SARS-CoV-2, wild type, UniProt P0DTC2)
[4] = target: recombinant SARS-CoV-2 RBD-His protein (Sino Biological, 40592-V08B) (SARS-CoV-2, UniProt P0DTC2)
[5] = target: S-R/PP SARS-CoV-2 spike (2P-stabilized spike with furin site changed to a single R) (SARS-CoV-2, wild type (Wuhan-Hu-1 spike), UniProt P0DTC2, stabilised)
[6] = target: S-R/x3 SARS-CoV-2 spike (x3 disulfide-stabilized RBD 'down' spike) (SARS-CoV-2, wild type (Wuhan-Hu-1 spike), UniProt P0DTC2, stabilised)
[7] = target: S-R/x2 SARS-CoV-2 spike (x2 disulfide-stabilized RBD 'down' spike) (SARS-CoV-2, wild type (Wuhan-Hu-1 spike), UniProt P0DTC2, stabilised)
[8] = target: SARS-CoV-2 Alpha (B.1.1.7) variant RBD (SARS-CoV-2 Alpha (B.1.1.7), N501Y)
[9] = target: S-R SARS-CoV-2 spike (unstabilized native spike with furin site changed to a single R) (SARS-CoV-2, wild type (Wuhan-Hu-1 spike), UniProt P0DTC2, stabilised)
[10] = target: T1, SARS-CoV-2 Alpha RBD; remark: listed apart in the source

Row | Binder | binding result [3] | binding result [4] | other results
1 | R1-32 (antibody, V domains shown, human IgG1) VH: EVQLVESGAEVKKPGSSVKVSCKASGGTFSSYAISWVRQAPGQGLEWMGGIIPILGIANYAQKFQGRVTITADKSTSTAYMELSSLRSEDTAVYYCARENGYSGYGAAANFDLWGRGTLVTVSS VL: QSVLTQPPSVSGAPGQRVTISCTGSSSNIGAGYDVHWYQQLPGTAPKLLIYGNSNRPSGVPDRFSGSKSGTSASLAITGLQAEDEADYYCQSYDSSLSGSVFGGGTKLTVL |  |  | Kd [1]: 4.74 nM; koff [1]: 0.00195 s⁻¹; kon [1]: 411000 M⁻¹ s⁻¹; koff [2]: 0.000354 s⁻¹; kon [2]: 499000 M⁻¹ s⁻¹
2 | C092 (R1-32-like mAb, ref. 28) (antibody, V domains shown) VH: QVQLVQSGAEVKKPGSSVKVSCKASGGSFTNHFISWVRQAPGQGLEWMGRIIPILGTANYAQNFQGRVMMTADKSTSTAYMELSSLRSEDTAVYYCARDSGYSGYGSTYYMDVWGKGTTVTVSS VL: QSVLTQPPSVSGAPGQRVTISCTGSNSNIGAGYDVHWYQQLPGAAPKLLIYGNNNRPSGVPDRFSGSKSDTSASLAITGLQVEDEADYYCQSYDSSLSDSVFGSGTKVTVL | binds | binds | 
3 | R1-32 (human IgG1 monoclonal antibody) (antibody, V domains shown) VH: EVQLVESGAEVKKPGSSVKVSCKASGGTFSSYAISWVRQAPGQGLEWMGGIIPILGIANYAQKFQGRVTITADKSTSTAYMELSSLRSEDTAVYYCARENGYSGYGAAANFDLWGRGTLVTVSS VL: QSVLTQPPSVSGAPGQRVTISCTGSSSNIGAGYDVHWYQQLPGTAPKLLIYGNSNRPSGVPDRFSGSKSGTSASLAITGLQAEDEADYYCQSYDSSLSGSVFGGGTKLTVL |  |  | binding result [5]: binds; binding result [6]: binds; binding result [7]: binds; Kd [8]: 0.71 nM; binding result [9]: binds
4 | C807 (R1-32-like mAb, ref. 29) (antibody, V domains shown) VH: QVQLVQSGAEAKKPGSSVKVSCKASGGTFKSYIINWVRQAPGQGLEWMGEIIPIFGTANYAQKFQGRVTSTADESTSTAYMELSSLKSEDTAVYYCARGRGYSGYGASYYFDYWGQGTLVTVSS VL: QSVLTQPPSVSGAPGQRVTISCTGSNSNIGAGYDVHWYQQLPGTAPKLLIYANSNRPSGVPDRFSGSKSGTSASLAITGLQAEDEADYYCQSYDSGLSGSVFGGGTKLTVL | binds | binds | 
5 | C832 (R1-32-like mAb, ref. 29) (antibody, V domains shown) VH: QVQLVQSGAEVKKPGSSVKVSCKASGGTFSSYSISWVRQAPGQGLEWMGRIIPILGIASYAQKFQGRVTITADKSTSTVYMELTGLRSDDTAVYYCARDRGYSDYGSHYYMDVWGKGTTVTVSS VL: QSVLTQPPSVSGAPGQRVTISCTGSSSNIGAGYDVHWYQQLPGTAPKLLIYINSNRPSGVPDRFSGSKSGTSASLAITGLQAEDEADYYCQSYDSSLSDSVFGGGTKLTVL | binds | binds | 
6 | C091 (R1-32-like mAb, ref. 28) (antibody, V domains shown) VH: QVQLVQSGAEVKKPGSSVKVSCKASGGTFSSYTISWVRQAPGQGLEWMGRIIPILGIANYAQKFQGRVTITADKSTSTAYMELSSLRSEDTAVYYCARDSGYSGYGSTYYMDVWGKGTTVTVSS VL: QSVLTQPPSVSGAPGQRVTISCTGSSSNIGAGYDVHWYQQLPGTAPKLLIYGNSNRPSGVPDRFSGSKSGTSASLAITGLQAEDEADYYCQSYDSSLSGSVFGTVTKVTVL | binds | binds | 
7 | FC08 (antibody, V domains shown) VH: QLLQQSGAEVKKPGSSVKVSCKASGGTFSSYAISWVRQAPGQGLEWMGGIIPIIGIANYAQKFQGRVTITADKSTSTAYMELSSLRSEDTAVYYCARERGYSGYGAAYYFDYWGQGTLVTVSS VL: SVLTQPPSVSGAPGQRVTISCTGSSSNIGAGYDVHWYQQLPGTAPKLLIYGNSNRPSGVPDRFSGSKSGTSASLAITGLQAEDEADYYCQSYDSSLSGSVFGGGTKLTVL |  |  | Kd [10]: 0.15 nM; koff [10]: 0.00025 s⁻¹; kon [10]: 1.69e+06 M⁻¹ s⁻¹
8 | FC08 (R1-32 related VH1-69 antibody, ref. 10) (antibody, V domains shown) VH: QLLQQSGAEVKKPGSSVKVSCKASGGTFSSYAISWVRQAPGQGLEWMGGIIPIIGIANYAQKFQGRVTITADKSTSTAYMELSSLRSEDTAVYYCARERGYSGYGAAYYFDYWGQGTLVTVSS VL: SVLTQPPSVSGAPGQRVTISCTGSSSNIGAGYDVHWYQQLPGTAPKLLIYGNSNRPSGVPDRFSGSKSGTSASLAITGLQAEDEADYYCQSYDSSLSGSVFGGGTKLTVL | binds |  | binding result [6]: binds; binding result [9]: binds
9 | C963 (R1-32-like mAb, ref. 27) (antibody, V domains shown) VH: QVQLVQSGAEVKKPGSSVRVSCKASGGTFSSFTITWVRQAPGQGLEWMGRIIPNLNIPNYAQRFQGRITITAEKSTSTAYLELSSLRSEDTAVYYCARGVGYSGSGSNWYFDLWGRGTLVTVSS VL: QSVLTQPPSVSGAPGQRVTISCTGSSSNIGAGYDVHWYQQLPGTAPKLLISGHINRPSGVPDRFSGSTSGTSASLAITGLQAEDEADYYCQSYDSSLSDSVFGGGTKLTV | binds | binds | 
10 | C941 (R1-32-like mAb, ref. 27) (antibody, V domains shown) VH: QVQLVQSGAEVKKPGSSVKVSCKASGGTSRSYPISWVRQAPGQGLEWMGRIIPIVGTANYAQRFQGRVTITADESTGTAYMELSSLRSEDTAVYYCARNRGYSDYGSVYYFDYWGQGTLVTVSS VL: QSVLTQPPSVSGAPGQRVTISCTGSSSNIGAGYDVHWYQQLPGAAPKLLIYRNINRPSGVPDRFSGSKSGTSASLAITGLQADDEADYYCQSYDSSLSGSVFGGGTKLTV | binds | binds | 
11 | C978 (R1-32-like mAb, ref. 27) (antibody, V domains shown) VH: QVQLVQSGAEVKKPGSSVKVSCKASGATFSNYIISWVRQAPGQGLEWMGRTIPLLDIANYAQKFQGRVTITADKSTRIVYMHLGSLTSEDTAVYYCATGKGYSSSSAAYYFDHWGQGTLVTVSS VL: QSVLTQPPSVSGAPGQRVTISCTGTNSNIGAGYDIHWYQQLPGTAPKLLIYGSNNRPSGVPDRFSGSKSGTSASLAITGLQAEDEADYYCQSYDSSLSGSEVFGGGTKLTVL | binds | binds | 
